Data from patent publication US20220227874A1, “CHIMERIC ANTIGEN RECEPTORS TARGETING EPIDERMAL GROWTH FACTOR RECEPTOR VARIANT III” (published 2022).
Residue numbers refer to the chain shown, from its start. One block for each binder: values may come before it.

How the values were obtained:
[1] = biological target: T1, EGFRvIII expressed on cells (F98-npEGFRvIII, NCI-H522-EGFRvIII, U87-KO-EGFRvIII) (human); experiment: flow cytometry, F98-EGFRvIII cells; 2nd Ab only 2.3
[2] = biological target: T1, EGFRvIII expressed on cells …; experiment: flow cytometry, F98-EGFRvIII cells; 2nd Ab only 258
[3] = biological target: T1, EGFRvIII expressed on cells …; experiment: flow cytometry, EGFRvIII expressing cell line against non-expressing cell lines
[4] = biological target: T1, EGFRvIII expressed on cells …; experiment: flow cytometry, F98-EGFRvIII cells; 2nd Ab only 1.3
[5] = biological target: T1, EGFRvIII expressed on cells …; experiment: flow cytometry, F98-EGFRvIII cells; 2nd Ab only 322

B1: 20B9 (antibody, V domains shown)
VH: QVTLKESGPVLVKPTETLTLTCTVSGFSLSNARMGVSWIRQPPGKALEWLGHIFSTDEKSYSTSLRGRITISKDTSRGLVVLTLTNMDPVDTATYYCARDSSNYEGYFDFWGPGFLVTVSS
VL: EIVMTQSPATLSVSPGERATLSCRVSQSIGANLAWYQQKFGQAPRLLIYGASTRATGIPVRFSGGGSGTEFTLTISSLQSEDFAIYSCQQYIYWPFTFGPGTTVDIK
- % positive [1]: 98.3%
- MFI [2]: 3420
- fold MFI over non-expressing cell lines [3]: ≥ 10 fold

B2: 20G5 (antibody, V domains shown)
VH: EVQLVESGGDLVKPGGSLRLSCAASGFTFTNAWMSWVRQAPGKGLEWVGRIKSKIDGGTTDYAAPVKGRFIISRDDSKNTLSLQMNSLKTEDTAMYYCTTAPGGPFDYWGQGSLVTVSS
VL: DIVLTQSPLSLPVTPGEPASISCRSSQSLLYSDRRNYLDWFLQKPGQSPHLLIYLGSYRASGVPDRFSGSGSGTDFTLKISRVEAEDVGVYYCMQALQIPITFGQGTRLEIK
- % positive [4]: 98.5%
- MFI [5]: 4640

B3: 26B9 (antibody, V domains shown)
VH: EVQLVESWGVLVKPGGSLRLSCAASGFIFNNAWMSWVRQAPGKGLEWIGRIKSKSDGGTTDYAAPVKDRFTISRDDSKDTLYLQMNGLKTEDTAVYFCTTAPGGPFDYWGQGTLVTVSS
VL: B2 VL with Y31H, S32R, R34G, R35F, H50Q, G56A, Y58S, G71D, I99T
- % positive [4]: 98.6%
- MFI [5]: 5400
- fold MFI over non-expressing cell lines [3]: ≥ 10 fold

B4: 11F10 (antibody, V domains shown)
VH: QVTLKESGPVLVKPIETLTLTCTVCGFSLSNPRMGVSWIRQPPGKALEWLGHIFSSDEKSYRLFLRSRLSISKDTSKSQVVLTMTNMDPVDTATYYCARDSSDYEGYFDYWGQGTLVTVSS
VL: EIVMTQSPATLSVSPGERTTLSCRASQSVGSNLAWYQQKPGQAPRLLIYGASTRASGVPARFSGSGSGTEFTLTISSLQSEDFAVYSCQEYNNWPFTFGQGTKVEIK
- % positive [1]: 98%
- MFI [2]: 3280
- fold MFI over non-expressing cell lines [3]: ≥ 10 fold

B7: 11B11 (antibody, V domains shown)
VH: QVTLKESGPVLVKPTETLTLTCTVSGFSLSNAKMGVSWIRQPPGKALEWLAHIFSTDEKSIRRSLRSRLTMSKDTSKSQVVLTMTNMDPVDTATYYCVRDSSNYEGYFDYWGQGTLVTVSS
VL: EVLMTQSPATLSVSPGERATLSCRASQSVSTNFAWYQQRPGQAPRLLLFGASTRATGIPGRFSGSGSGTENILTISSLQSEDFAIYFCQQYKDWPFTFGPGSKVEIK
- % positive [1]: 98.2%
- MFI [2]: 3390
- fold MFI over non-expressing cell lines [3]: ≥ 10 fold

B10: 14C11 (antibody, V domains shown)
VH: B7 VH with S30N, K33R, L50F, I61F, R63T, M71L, V98A, T115I
VL: EIVMTQSPATLSVSPGERATLSCRASQSVSNNLAWYQQKPGQAPRLLIYGASTRATGVPARFSGSDSGTEFSLTISSLQSEDFAVYFCQQYKDWPFTFGPGTKVEIK
- % positive [1]: 98.2%
- MFI [2]: 3210
- fold MFI over non-expressing cell lines [3]: ≥ 10 fold

B11: 21E7 (antibody, V domains shown)
VH: B7 VH with K5E, K33R, L47P, L50F, I61L, R63L, M71L, V98A
VL: DVVLTQSPATLSVSPGERATLSCRASQSVNSNLAWYQQNPGQAPRLLIFGSSTRATGIPASFSGSGSGTEFTLTINSLQSEHSAVYYCQQYNDWPFTFGPGTKVDIK
- % positive [1]: 98.5%
- MFI [2]: 3100
- fold MFI over non-expressing cell lines [3]: ≥ 10 fold

B13: 12B2 (antibody, V domains shown)
VH: B4 VH with I15T, C25S, F64S, A98V, D103N, E105G
VL: EVVMTQSPATLSVSPGERATLSCRASQSVINNLAWYQQKPGQAPRLLIYGTSTRATDIPARFSGSGSGTEFTLTISSLQSEDFAVYYCQDYNNWPFTFGPGTKVDIK
- % positive [1]: 97.9%
- MFI [2]: 2750
- fold MFI over non-expressing cell lines [3]: ≥ 10 fold

B14: 19A9 (antibody, V domains shown)
VH: B7 VH with K5E, K33R, L47P, L50F, I61L, R63L, M71L, V98A
VL: B11 VL with D1E, L4M, S31R, N39K, S51T, S61R, N76D, A84G, V85L
- % positive [1]: 98.1%
- MFI [2]: 3100
- fold MFI over non-expressing cell lines [3]: ≥ 10 fold

B15: 12H6 (antibody, V domains shown)
VH: B7 VH with K33R, M71L, V98A
VL: B7 VL with L3V, S28G, T31S, A43S, F49Y, I58V, E105D
- % positive [1]: 98.3%
- MFI [2]: 3440
- fold MFI over non-expressing cell lines [3]: ≥ 10 fold

B16: 21E11 (antibody, V domains shown)
VH: B7 VH with A32V, K33R, L50F, T56S, M71L, V98A, Y110F
VL: DMVVTQSPATLSVSPGERATLSCRASQSVGSDLAWYQQPPGQSPRLLIYGASTRATGVPARFSGSGSGTDFTLTITSLESEDFAVYYCQQYNDWPFTFGPGTKVDIK
- % positive [1]: 98.5%
- MFI [2]: 3100
- fold MFI over non-expressing cell lines [3]: ≥ 10 fold

B18: 20E12 (antibody, V domains shown)
VH: EVNLVESGGGLVKPGGSLRLSCEASGFTFSYAWMSWVRQAPGKGLEWVGRIKSIADGGATDYAAPVRNRFTISRDDSRNTLYLEMHSLKTEDTAVYYCTTIPGNDAFDMWGQGTMVTVSS
VL: DIVLTQSPLSLSVTPGEPASISCRSSQSLLYSNGKNYLDWFLHKPGQSPQLLIYLGSNRASGVPDRFSGSGSGIDFILKISRVEAEDVGVYYCMQAQQTPITFGQGTRLEIK
- % positive [4]: 97.9%
- MFI [5]: 3980
- fold MFI over non-expressing cell lines [3]: ≥ 10 fold

The next lines start with the values.

- % positive [4]: 98.6%
- MFI [5]: 5160
- fold MFI over non-expressing cell lines [3]: ≥ 10 fold
B5: 30D8 (antibody, V domains shown)
VH: EVQLVESGGGLVKPGGSLRLSCEASGFTFSDAWMSWVRQAPGKGLEWVGRIKSKTDGGTTDYVVPLNGRFIISRDDSRNTLYLQLNNLKTEDTAVYYCTTVPGSYGYWGQGTLVTVSS
VL: DIVMTQSPLSLPVTPGEPASISCRSSQSLLHNKRNNYLDWFLQKPGQSPQLLIYLASNRASGVPDRFSGGGSGTDFTLKISRVEAEDVGVYYCMQAQQTPITFGQGTRLEIK

- % positive [1]: 98.3%
- MFI [2]: 3350
- fold MFI over non-expressing cell lines [3]: ≥ 10 fold
B6: 32A10 (antibody, V domains shown)
VH: B7 VH with K33R, M71L, Y96F, V98A
VL: B7 VL with L3V, A19V, T31S, F49Y, S52T, I58L, E105D

- % positive [1]: 97.9%
- MFI [2]: 2830
- fold MFI over non-expressing cell lines [3]: ≥ 10 fold
B8: 29D5 (antibody, V domains shown)
VH: QVTLKESGPVLVKPTETLTLTCTVSGFSLSNPRMGVSWLRQPPGKALEWFAHIFSTDEKSYSPSLRGRLTVSKDTSKSQVVLTLTNMDPVDTATYYCARDSSNYEGYFDYWGQGTLVTVSS
VL: KIVMTQSPATLSVSPGERATLSCRANQIVSSNLAWYQQKPGQAPRLLVFGTSTRATGIPIRFSGSGSGTEFTLTVSSLQSEDFAVYVCQQYNDWPFTFGPGTKVDIK

- % positive [1]: 98.5%
- MFI [2]: 3250
- fold MFI over non-expressing cell lines [3]: ≥ 10 fold
B9: 42G9 (antibody, V domains shown)
VH: QVTLKESGPVLLKPTETLTLTCTVSGFSLSNPRMGVSWIRQPPGKALEWFAHIFSTDEKSLKLSLRSRLTLSKDTSKSQVVLTMTNMAPVDSATYYCARDSSNYEGYFDFWGQGTLVTVSS
VL: EVVLTQSPATLSVSPGERATLSCRASQSVRSNLAWYQQKSGQAPRLLIYGSTIRATGVPARFSGSGSGTEFTLTISSLQSEDFAVYYCQQYSDWPFTFGPGTKVDIK

- % positive [1]: 98.5%
- MFI [2]: 2980
- fold MFI over non-expressing cell lines [3]: ≥ 10 fold
B12: 49B11 (antibody, V domains shown)
VH: B7 VH with A32V, K33R, L50F, T56S, M71L, V98A
VL: B16 VL with D1E, V3E, S28N, V29I, P39Q, P40S, S43A, Y49S, A60T, E79Q

- % positive [1]: 98.7%
- MFI [2]: 2990
- fold MFI over non-expressing cell lines [3]: ≥ 10 fold
B17: 46E10 (antibody, V domains shown)
VH: B7 VH with K33R, M71L, T83I, V98A
VL: B7 VL with L3V, A9P, T10N, S30T, T31S, A43S, F49Y, I58V, I85V, E105D

- % positive [4]: 98.6%
- MFI [5]: 3730
- fold MFI over non-expressing cell lines [3]: ≥ 10 fold
B19: 32G8 (antibody, V domains shown)
VH: B18 VH with A55T, A59V, T60I, F70C, A106D, T114R
VL: B18 VL

- % positive [4]: 98.5%
- MFI [5]: 4130
- fold MFI over non-expressing cell lines [3]: ≥ 10 fold
B20: 34E7 (antibody, V domains shown)
VH: B18 VH with A55N, A64S, T80M, M115L
VL: B18 VL with S26T, Y54F, N58I
